Assay results taken from the supplement of paper PMC10724198.

Key:
[1] = test system: Saccharomyces cerevisiae; test: protein stability index of tFT-peptide fusion in wild type (PSI (0-1 scale)); higher = more stable (slower turnover); settings: genetic background: wild type
Protocol: (§1)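 MPS profiling in S. cerevisiae of two library types built from selected 12-aa C-degron peptides (IN1, IN2, LN1, LN3, VN2, R1-R5, W1-W3, Atg1 and Rpa12 C-termini): saturation mutagenesis libraries and C-terminal +1 capping libraries (13 aa). Each peptide is fused to the C-terminus of a sfGFP-mCherry timer, after a GGGS linker. Cells are FACS-sorted into 8 mCherry/sfGFP bins and sequenced. PSI runs from 0 (unstable) to 1 (stable), measured once in wild type and in the das1Δ or doa10Δ background.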

[2] = test system: Saccharomyces cerevisiae; test: protein stability index of tFT-peptide fusion in deletion strain of DAS1 (PSI (0-1 scale)); higher = more stable (slower turnover)
Protocol: as §1
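Throughout, for protein stability index of tFT-peptide fusion in deletion strain of DAS1: PSI is a weighted mean of each variant's read distribution over the sorted stability bins, computed only for variants having over 10 reads in total.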
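Throughout, for protein stability index of tFT-peptide fusion in wild type: PSI derived as read-weighted mean over the 8 sorting bins, only variants exceeding 10 total reads kept, mCherry placed adjacent to the peptide and sfGFP distal.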

Sequence | protein stability index [1] | protein stability index [2]
LVVYLSCVACRN | 0.0192 | 0.0464
ARWRVGAWRGAS | 0.427 | 0.688
LVVYHSCVACIN | 0.181 | 0.313
VTGAVGGWRLVG | 0.141 | 0.672
CRWRVGLWRGAS | 0.276 | 0.697
CQSCGYKFRTNN | 0.248 | 0.7
PSLAASFWRWVG | 0.145 | 0.706
ARIRVGLWRGAS | 0.599 | 0.686
CNSCGYKFRTNN | 0.193 | 0.702
VRGAVGGRRLVG | 0.641 | 0.675
KKHKKCQKQKIN | 0.0395 | 0.548
VRGAVSGWRLVG | 0.145 | 0.683
ARWRVGLWRGASG | 0.662 | 0.674
PDKRNHLIKLLNH | 0.142 | 0.669
ARWRVGLVRGAS | 0.614 | 0.663
PDKRGHLIKLLN | 0.113 | 0.593
PDKRNHGIKLLN | 0.41 | 0.587
VRGVVGGWRLVG | 0.176 | 0.679
CTSCGYKFRTLN | 0.132 | 0.696
PSQAASFWRVVG | 0.161 | 0.695
PSYAASFWRVVG | 0.131 | 0.715
CHSCGYKFRTNN | 0.212 | 0.715
PSLCASFWRVVG | 0.129 | 0.68
PSFAASFWRVVG | 0.148 | 0.703

Sequence | protein stability index [1] | protein stability index [2]
KSLAASFWRVVG | 0.112 | 0.673
PSLAFSFWRVVG | 0.111 | 0.676
FSSRWTFRYWVN | 0.1 | 0.604
FSMRWTFRYWVG | 0.422 | 0.476
LVVYLSCVACIE | 0.0121 | 0.0184
VRGAVGQWRLVG | 0.147 | 0.663
CTSCGYKDRTNN | 0.634 | 0.702
CTSCGPKFRTNN | 0.598 | 0.674
LKILRQKMNHQNY | 0.595 | 0.705
KKHKKAQKQKIN | 0.06 | 0.601
KKHKKGQKQKINQ | 0.644 | 0.664
VRGPVGGWRLVG | 0.181 | 0.682
ARWRVGLWRGASP | 0.663 | 0.672
PDKRHHLIKLLN | 0.113 | 0.705
CTSGGYKFRTNN | 0.551 | 0.673
KKHKCGQKQKIN | 0.0807 | 0.582
KKHKKGQKQKIP | 0.336 | 0.638
CTSCGYKFRPNN | 0.727 | 0.714
PDKRWHLIKLLN | 0.0628 | 0.633
RLIKPLPVQFLN | 0.0432 | 0.627
RLIQPLPEQFLN | 0.29 | 0.592
CTSCGYLFRTNN | 0.348 | 0.698
FSMRWTFRYCVN | 0.088 | 0.492
KKHKKGQKGKIN | 0.563 | 0.584

Sequence | protein stability index [1] | protein stability index [2]
RLIQPLPVQFLG | 0.35 | 0.6
RLIQPLPVDFLN | 0.716 | 0.624
ARWRVGLWQGAS | 0.602 | 0.578
RLIQPLPVQFLH | 0.301 | 0.582
LVVYLDCVACIN | 0.0395 | 0.119
LKILRQKMLHQN | 0.227 | 0.643
SLIQPLPVQFLN | 0.0779 | 0.618
PSLAASFWRVEG | 0.672 | 0.687
PSLAASFWRVHG | 0.193 | 0.686
PDKFNHLIKLLN | 0.117 | 0.622
FSMRWTFYYWVN | 0.0564 | 0.418
KKHTKGQKQKIN | 0.129 | 0.622
KKHKKGQKQKQN | 0.264 | 0.583
RLIQPLPVQFLK | 0.613 | 0.881
LDVYLSCVACIN | 0.134 | 0.231
FSMRWTFRYWVE | 0.502 | 0.473
ARWRVGLWRKAS | 0.1 | 0.672
RLIQPLPVQKLN | 0.0688 | 0.809
PSLAASYWRVVG | 0.157 | 0.672
PSLAASFWRIVG | 0.143 | 0.675
VRGAVGGWELVG | 0.551 | 0.63
HVVYLSCVACIN | 0.0139 | 0.0397
LKILRQKMNKQN | 0.246 | 0.656
PDPRNHLIKLLN | 0.15 | 0.582

Sequence | protein stability index [1] | protein stability index [2]
VPGAVGGWRLVG | 0.139 | 0.667
PFKRNHLIKLLN | 0.0943 | 0.587
CTSCGYKTRTNN | 0.632 | 0.679
FSMRGTFRYWVN | 0.106 | 0.608
LKILRQCMNHQN | 0.288 | 0.686
LVVYLSCVACPN | 0.0732 | 0.0988
VRGEVGGWRLVG | 0.119 | 0.606
LKIHRQKMNHQN | 0.226 | 0.673
VRGFVGGWRLVG | 0.145 | 0.691
RLIQPLPVNFLN | 0.0915 | 0.579
LVVYLSCVACINL | 0.0224 | 0.0337
PDKPNHLIKLLN | 0.199 | 0.607
VRGNVGGWRLVG | 0.109 | 0.667
LNVYLSCVACIN | 0.043 | 0.188
FSMRWTARYWVN | 0.0802 | 0.513
LKICRQKMNHQN | 0.254 | 0.722
LKIIRQKMNHQN | 0.204 | 0.718
CTSCGYKFGTNN | 0.688 | 0.693
VRGAVHGWRLVG | 0.155 | 0.679
PDKRNHLIYLLN | 0.0898 | 0.702
RLIQPNPVQFLN | 0.0748 | 0.576
RLITPLPVQFLN | 0.0429 | 0.605
RLIQPLIVQFLN | 0.0468 | 0.542
PDKRNHNIKLLN | 0.172 | 0.602

Sequence | protein stability index [1] | protein stability index [2]
ESMRWTFRYWVN | 0.0849 | 0.56
PDKRNHLIKLLD | 0.666 | 0.611
LKILRQKCNHQN | 0.295 | 0.663
ARWRDGLWRGAS | 0.651 | 0.692
AEWRVGLWRGAS | 0.528 | 0.689
CTSCGYKVRTNN | 0.388 | 0.693
ARWRVGSWRGAS | 0.641 | 0.692
LKILRQKMNAQN | 0.208 | 0.671
RLIQPLPVPFLN | 0.313 | 0.607
PDKRNHLIKLLNN | 0.137 | 0.666
LVVYLSCVACINF | 0.024 | 0.0394
PSLAASFWWVVG | 0.582 | 0.718
LKILRQSMNHQN | 0.238 | 0.661
KKHKKGQKTKIN | 0.435 | 0.619
HSMRWTFRYWVN | 0.0543 | 0.586
CTSCLYKFRTNN | 0.185 | 0.675
ARWRVELWRGAS | 0.203 | 0.665
FVVYLSCVACIN | 0.0218 | 0.0242
LVVYLSCVACEN | 0.132 | 0.132
LTVYLSCVACIN | 0.0165 | 0.0375
LKILFQKMNHQN | 0.267 | 0.688
